Here are results for six molecules from US20050089932A1, “Novel proteins with targeted binding” (Avidia Research Institute, priority 2001, published 2005).

The conditions of series [1]: commercial drugs; cited from earlier work.
Series [2] has as its target T1, recombinant human FcERI protein (human, UniProt P12319 26-205, limits assumed).
T1 construct: also called recombinant soluble IgE receptor; IgE receptor R1
T1 sequence (looked up): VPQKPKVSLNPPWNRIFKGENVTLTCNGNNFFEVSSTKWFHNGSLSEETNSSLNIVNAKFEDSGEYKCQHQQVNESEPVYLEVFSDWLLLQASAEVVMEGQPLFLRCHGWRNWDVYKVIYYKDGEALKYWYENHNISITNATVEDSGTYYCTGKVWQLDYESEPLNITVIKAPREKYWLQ
Nature of the series: Biacore, human IgE on CM5 chip. An excerpt: (§1) Human IgE was immobilized to a CM5 chip (BiaCore) using standard NHS/EDC methods. Sample proteins were dialyzed into HBS buffer overnight, and the dialysis buffer was used as a running buffer for the experiment. Sample proteins were run successively over IgE or ethanolamine coated flow cells, and the data analyzed using the BiaEvaluation software package.

The subject of a further series is monkey PBMC. Briefly: PBMC assay on monkey cells. Format: cell-based, cynomolgus monkeys. On the procedure:
(§2) Efficacy assays were performed using human and monkey PBMC as described above. CD28 results in PBMC assays:
(§3) In order to assay the ex-vivo efficacy of monomers, they were tested on isolated peripheral blood lymphocytes (PBMC). […]. Monomer protein was added in varying concentrations to each culture and incubation occurred for 3 days at 37° C. in a CO2 containing atmosphere. During the last 9 hours, cultures were pulsed with 1 uCi per well of ^3H thymidine (ICN, Costa Mesa, Calif.) and the incorporation of radioactivity was measured on a Wallac Trilux Microbeta scintillation counter (Perkin Elmer, Boston, Mass.). See, FIG. 23.

The test system of the next series is human PBMC. Briefly: PBMC assay on human cells. The series is classed as cell-based. The procedure:
as §2, §3

A further series deals with human IgE (Homo sapiens, UniProt P01854). Briefly: Biacore affinity measurements on immobilized human IgE. The series is classed as binding. The conditions noted are these: IgE on CM5 chip.
From the text: as §1
(In general: SPR reads the build-up and loss of mass on a sensor chip optically.)

Regarding Enbrel, the “Human T1/2” value in series [1] is 103 h.

Remicade: TNFa Antibody: in series [1], the “Human T1/2” value was 216 h. As for Rituxan: CD20 Antibody, the “Human T1/2” value in series [1] was 78 h.

B1: human IgE (antibody)
chain: ASTQSPSVFPLTRCCKNIPSNATSVTLGCLATGYFPEPVMVTWDTGSLNGTTMTLPATTLTLSGHYATISLLTVSGAWAKQMFTCRVAHTPSSTDWVDNKTFSVCSRDFTPPTVKILQSSCDGGGHFPPTIQLLCLVSGYTPGTINITWLEDGQVMDVDLSTASTTQEGELASTQSELTLSQKHWLSDRTYTCQVTYQGHTFEDSTKKCADSNPRGVSAYLSRPSPFDLFIRKSPTITCLVVDLAPSKGTVNLTWSRASGKPVNHSTRKEEKQRNGTLTVTSTLPVGTRDWIEGETYQCRVTHPHLPRALMRSTTKTSGPRAAPEVYAFATPEWPGSRDKRTLACLIQNFMPEDISVQWLHNEVQLPDARHSTTQPRKTKGSGFFVFSRLEVTRAEWEQKDEFICRAVHEAASPSQTVQRAVSVNPGK
notes: Immobilized on plates or on a CM5 chip; variable regions and light chain not described
Turning to B1, in series [2], the Kd worked out at 450 nM.

B2: CD28 10: CD28 trimer, sequence >CD28-A10 (protein)
chain: CGPGRFQCESGQCVPATWVCDGDDDCADGSDEKSCATTAPTCESNQFQCGSGQCLPGTWRCDGVNDCADSSDETGCGRPGPGATSAPAACGPGRFQCNNGNCVPQTLGCDGDNDCGDSSDEANCSAPASEPPGSL
Turning to B2, the inhibition entry in the series with monkey PBMC and with human PBMC was “inhibition = 81%” throughout.

B3: FcERI: recombinant human FcERI protein, the IgE receptor (protein)
chain: T1 sequence (looked up)
Turning to B3, in the series with human IgE, the ka is listed as 8.4 × 10^3 and the kd is recorded as 3.8 × 10^−3.

As usually defined, the Kd is the free concentration of one partner at which half of the binding sites on the other are occupied at equilibrium, for simple one-to-one binding.
